B1: KIR3DL2 expressed on cells (receptor, human, UniProt P43630 22-455, looked up)
chain: LMGGQDKPFLSARPSTVVPRGGHVALQCHYRRGFNNFMLYKEDRSHVPIFHGRIFQESFIMGPVTPAHAGTYRCRGSRPHSLTGWSAPSNPLVIMVTGNHRKPSLLAHPGPLLKSGETVILQCWSDVMFEHFFLHREGISEDPSRLVGQIHDGVSKANFSIGPLMPVLAGTYRCYGSVPHSPYQLSAPSDPLDIVITGLYEKPSLSAQPGPTVQAGENVTLSCSSWSSYDIYHLSREGEAHERRLRAVPKVNRTFQADFPLGPATHGGTYRCFGSFRALPCVWSNSSDPLLVSVTGNPSSSWPSPTEPSSKSGICRHLHVLIGTSVVIFLFILLLFFLLYRWCSNKKNAAVMDQEPAGDRTVNRQDSDEQDPQEVTYAQLDHCVFIQRKISRPSQRPKTPLTDTSVYTELPNAEPRSKVVSCPRAPQSGLEGVF
notes: whole, on cells; on CT26 cells (vector with thy1.1 tag)
B2: IGSF8 protein without D1 domain (ligand, human, UniProt Q969P0 150-579, looked up)
chain: PDVLQVSAAPPGPRGRQAPTSPPRMTVHEGQELALGCLARTSTQKHTHLAVSFGRSVPEAPVGRSTLQEVVGIRSDLAVEAGAPYAERLAAGELRLGKEGTDRYRMVVGGAQAGDAGTYHCTAAEWIQDPDGSWAQIAEKRAVLAHVDVQTLSSQLAVTVGPGERRIGPGEPLELLCNVSGALPPAGRHAAYSVGWEMAPAGAPGPGRLVAQLDTEGVGSLGPGYEGRHIAMEKVASRTYRLRLEAARPGDAGTYRCLAKAYVRGSGTRLREAASARSRPLPVHVREEGVVLEAVAWLAGGTVYRGETASLLCNISVRGGPPGLRLAASWWVERPEDGELSSVPAQLVGGVGQDGVAELGVRPGGGPVSVELVGPRSHRLRLHSLGPEDEGVYHCAPSAWVQHADYSWYQAGSARSGPVTVYPYMHALDT
notes: domain: D2-4; also called D24; D2-4

In assay [1] the target is T1, human IGSF8 expressed on the cell surface (human, UniProt Q969P0 28-613).
T1 construct: whole, on cells; also called human IGSF8 on CT26 cells; IGSF8 on MC38 cells
T1 sequence (looked up): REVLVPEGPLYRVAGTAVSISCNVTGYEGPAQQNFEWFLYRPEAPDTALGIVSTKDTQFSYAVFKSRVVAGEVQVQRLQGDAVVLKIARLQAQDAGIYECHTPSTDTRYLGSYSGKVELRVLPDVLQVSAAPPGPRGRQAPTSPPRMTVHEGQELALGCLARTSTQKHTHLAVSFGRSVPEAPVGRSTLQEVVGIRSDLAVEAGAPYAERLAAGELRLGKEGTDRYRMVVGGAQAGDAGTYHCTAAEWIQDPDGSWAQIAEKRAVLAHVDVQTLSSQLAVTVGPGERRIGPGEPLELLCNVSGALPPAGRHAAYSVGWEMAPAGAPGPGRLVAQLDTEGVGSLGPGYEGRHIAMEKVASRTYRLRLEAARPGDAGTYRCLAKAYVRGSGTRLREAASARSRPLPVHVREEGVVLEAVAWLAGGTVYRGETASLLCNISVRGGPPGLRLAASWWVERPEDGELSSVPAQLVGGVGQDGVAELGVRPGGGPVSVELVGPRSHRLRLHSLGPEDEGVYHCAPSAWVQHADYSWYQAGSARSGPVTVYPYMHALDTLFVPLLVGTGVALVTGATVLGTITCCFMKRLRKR
Description: FACS cell-cell conjugate assay, CFSE-labelled MC38-IGSF8 mixed 1:1 with Far Red-labelled CT26-KIR3DL2. On the procedure: FIG. 23A is a diagram of two embodiments of an antibody blocking assay. In the left panel, CT26 cells expressing ligand IGSF8 are treated with soluble and biotin labelled receptor (KIR3DL1/2) and anti-IGSF8 mAbs, and subsequently, bound receptor is detected with PE-streptavidin. In the right panel, MC38 cells expressing the IGSF8 ligand are contacted with KLR- or KIR-receptor-expressing CT26 cells, and anti-IGSF8 antibodies capable of blocking MC38-CT26 cell/cell conjugates will reduce the formation of the FACS-detectable conjugate.
A competition assay (FIG. 23A) was then designed to test whether these seven mAbs block IGSF8 binding to the KIR3DL1/2 or the KLRC1&D1 heterodimer receptors. MC38 cells (a cell line derived from C57BL6 murine colon adenocarcinoma cells from NIH) with forced expression of IGSF8 protein on cell surface by lentiviral delivery of a human IGSF8-expression construct were labeled with CFSE (Carboxyfluorescein succinimidyl ester, Thermo). CT26 cells with forced expression of either KIR3DL1/2 or KLRC1&D1 were labeled with CellTrace Far Red (Thermo). The MC38 cells were then mixed at a 1:1 ratio with the CT26 cells for about an hour at room temperature. The formation of MC38 and CT26 cell/cell conjugates was assessed by flow cytometry.

For assay [2], the target named is T2, recombinant human IGSF8 extracellular domain tagged by a human Fc region (IGSF8-hFc) (human, UniProt Q969P0 28-579, biotin label in Examples 17, 18 and 28 (site not given)).
T2 construct: also called IGSF8-Fc fusion protein; IGSF8-hFc-biotin; not shown: human Fc region
T2 sequence: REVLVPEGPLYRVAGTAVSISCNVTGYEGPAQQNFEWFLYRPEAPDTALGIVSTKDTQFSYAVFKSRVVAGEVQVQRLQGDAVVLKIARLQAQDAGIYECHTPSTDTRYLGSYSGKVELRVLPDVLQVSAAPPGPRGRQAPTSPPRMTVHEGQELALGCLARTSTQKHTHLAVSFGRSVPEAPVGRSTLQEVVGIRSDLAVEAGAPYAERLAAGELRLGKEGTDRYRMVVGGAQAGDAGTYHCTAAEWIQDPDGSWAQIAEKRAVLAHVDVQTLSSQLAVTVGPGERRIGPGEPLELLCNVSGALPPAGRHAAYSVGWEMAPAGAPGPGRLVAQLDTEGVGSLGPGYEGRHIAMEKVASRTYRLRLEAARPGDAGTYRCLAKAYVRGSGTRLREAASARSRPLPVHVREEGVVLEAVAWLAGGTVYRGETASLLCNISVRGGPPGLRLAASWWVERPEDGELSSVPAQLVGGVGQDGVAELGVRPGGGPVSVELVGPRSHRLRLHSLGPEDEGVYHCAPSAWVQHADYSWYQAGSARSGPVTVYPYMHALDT
Description: FACS, biotin-labelled IGSF8-hFc on CT26 cells expressing the KIR, MFI normalized to Thy1.1. Here is the method:
For this experiment, different human KIR receptors (KIR2DL1, KIR2DL2, KIR2DL3, KIR2DL4, KIR2DL5A, KIR2DL5B, KIR3DL1, KIR3DL2, KIR3DL3) were first cloned into a proprietary lentiviral vector containing a thy1.1 tag (FIG. 17A). Then mouse CT26 cells, were transducted by these lentiviral constructs, and IGSF8 binding was tested with biotin-labelled recombinant IGSF8 hFc fusion protein. The mean fluorescence intensity (MFI) of IGSF8 binding to different CT26 cells were normalized by the expression of different KIRs on CT26 cells using an anti-thy1.1 mAb (Biolegend) via flow cytometry.
(§1) KLRC1 also contains a ITIM motif in its intracellular domain, and was known to be a inhibitory receptor of NK or CD8⁺ T cells as part of a heterodimer with KLRD1 on the cell surface. […] Specifically, 100,000 CT26 cells overexpressing the antigens (KIRs or KLRs) were washed with PBS buffer containing 2% FBS, and incubated with 100 μL IGSF8 recombinant proteins or antibodies (5 μg/mL) for 30 minutes on ice. Cells were then washed twice with wash buffer, and incubated with 100 μL of 1:100 anti-human Fc-PE antibody for 15 minutes on ice. Cells were washed twice with wash buffer and analyzed on a FACS analyzer (CytoFlex, Beckman). In these experiments, the mean fluorescence intensity (MFI) of IGSF8 binding to different CT26 cells were normalized by the expression of different KLRs on CT26 cells using an anti-thy1.1 mAb via flow cytometry.

Assay [3] concerns the target B1. Description: FACS, hFc-tagged proteins on CT26 cells expressing the receptor, MFI normalized to Thy1.1. Here is the method:
as §1

B1: the binding result in assay [1] and in assay [2] was “binds” in each case. Consider B2, for which the binding result in assay [3] was “no binding”.

(Values after patent US20230303695A1 (SHANGHAI XBH BIOTECHNOLOGY, published 2023).)
